The source of these data is paper PMC11922769.

For this data set, the target named is T1, His-MBP-SPO11;TOP6BL-Flag (Mus musculus;Mus musculus, UniProt Q9WTK8;J3QMY9 1-396;1-579, |).
T1 sequence 1: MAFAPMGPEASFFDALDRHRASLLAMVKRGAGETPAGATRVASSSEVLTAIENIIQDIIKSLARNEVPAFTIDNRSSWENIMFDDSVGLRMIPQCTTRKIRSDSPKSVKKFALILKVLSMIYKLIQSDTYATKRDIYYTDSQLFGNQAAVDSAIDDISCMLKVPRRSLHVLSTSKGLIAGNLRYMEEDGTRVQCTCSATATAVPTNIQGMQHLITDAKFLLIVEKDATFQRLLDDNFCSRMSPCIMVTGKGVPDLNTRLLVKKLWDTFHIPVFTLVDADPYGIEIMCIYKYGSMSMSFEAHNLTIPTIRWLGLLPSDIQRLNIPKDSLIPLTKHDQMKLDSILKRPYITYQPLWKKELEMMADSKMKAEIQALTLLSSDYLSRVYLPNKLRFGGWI
T1 sequence 2: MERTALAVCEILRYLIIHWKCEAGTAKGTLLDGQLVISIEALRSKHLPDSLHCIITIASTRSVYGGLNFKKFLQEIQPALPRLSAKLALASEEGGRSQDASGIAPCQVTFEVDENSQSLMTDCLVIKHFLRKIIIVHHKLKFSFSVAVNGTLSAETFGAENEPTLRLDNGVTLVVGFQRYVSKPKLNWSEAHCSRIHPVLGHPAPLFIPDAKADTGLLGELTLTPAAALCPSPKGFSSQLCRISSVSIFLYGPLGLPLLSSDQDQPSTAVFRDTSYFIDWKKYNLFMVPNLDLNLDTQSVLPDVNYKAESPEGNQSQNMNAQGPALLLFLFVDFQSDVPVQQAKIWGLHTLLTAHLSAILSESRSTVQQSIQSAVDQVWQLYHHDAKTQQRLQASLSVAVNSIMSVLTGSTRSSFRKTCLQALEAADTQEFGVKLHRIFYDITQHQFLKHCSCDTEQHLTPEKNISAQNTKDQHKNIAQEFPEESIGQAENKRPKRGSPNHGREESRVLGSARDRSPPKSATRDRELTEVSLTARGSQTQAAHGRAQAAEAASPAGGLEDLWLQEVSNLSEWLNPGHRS
Kind of data set: EMSA. (In general: In EMSA bound probe runs differently from free probe, usually more slowly.)

B1: 46bp dsDNA, double 5' overhang (dsDNA)
DNA 1: TAGACGTCCTCGCATCAAGATGCTGCTGCCATCTTATATTTTCTATAC
DNA 2: TAGTATAGAAAATATAAGATGGCAGCAGCATCTTGATGCGAGGACGTC
B1: binding was put at a Kd of 20.8 ± 0.39 nM.

In general, Kd refers to the constant that tells how readily two partners part at equilibrium. Read a low Kd as tighter binding.
